T1: FcγRIIb extracellular domain with C-terminal His tag (human, UniProt P31994 43-217)
T1 construct: extracellular domain; also called 2b; FcgRIIb
T1 sequence (looked up): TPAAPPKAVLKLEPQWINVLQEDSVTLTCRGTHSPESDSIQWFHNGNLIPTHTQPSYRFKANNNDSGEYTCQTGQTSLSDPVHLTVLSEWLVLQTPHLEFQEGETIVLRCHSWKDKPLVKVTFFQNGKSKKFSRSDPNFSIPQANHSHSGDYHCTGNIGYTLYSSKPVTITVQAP

T2: FcγRIIb extracellular domain with C-terminal His tag (human, UniProt P31994 43-217)
T2 construct: extracellular domain; Soluble receptor used as analyte in Biacore; also called FcgRIIb
T2 sequence (looked up): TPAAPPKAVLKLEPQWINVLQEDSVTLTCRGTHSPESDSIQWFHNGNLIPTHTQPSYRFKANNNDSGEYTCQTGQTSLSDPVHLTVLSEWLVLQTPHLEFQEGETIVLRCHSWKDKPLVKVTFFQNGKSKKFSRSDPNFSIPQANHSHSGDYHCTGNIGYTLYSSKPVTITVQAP


How the values were obtained:
[1] = target: T1, FcγRIIb extracellular domain with …; assay: SPR, binding relative to GpH7-A5/GpH7-B3/GpL16-k0 = 100
[2] = target: T3, FcγRIIIa extracellular domain with C-terminal His tag (human, UniProt P08637 17-208); assay: as above
T3 construct: extracellular domain; also called 3a; FcgRIIIa

[3] = target: T3, FcγRIIIa extracellular domain with …; assay: SPR; ratio of He/Con_3a (FcγRIIIa) to He/Con_2b (FcγRIIb)
Method: The heterodimerized antibodies He Abs in which one of the H chains was introduced with an alteration were assayed for their binding activities to each activating FcγR and inhibitory FcγR according to the method described in Example 4. […] The activating FcγRs in FIGS. 26, 27, 28, and 29 are FcγRIa, FcγRIIa (R), FcγRIIa (H), and FcγRIIIa, respectively.
Analysis of interaction between objective antibody and the FcγR was carried out using Biacore T100 (GE Healthcare). HBS-EP+ (GE Healthcare) was used as the running buffer, and the measurement temperature was set to 25° C. Chips produced by immobilizing the antigen peptide by the amine coupling method to a Series S Sencor Chip CM5 (GE Healthcare), or alternatively, chips produced by allowing preliminarily biotinylated antigen peptides to interact with and immobilize onto a Series S Sensor Chip SA (certified) (GE Healthcare) were used. Antibodies of interest were captured onto an antigen peptide-immobilized chip, and allowed to interact to each FcγR diluted with running buffer. To regenerate and repeatedly use the chip, the antibodies captured on the chip were washed off by reacting 10 mM glycine-HCl, pH 1.5.

[4] = target: T4, FcγRIa extracellular domain with C-terminal His tag (human, UniProt P12314 16-292); assay: ratio He/Con_1a : He/Con_2b (FcγRIa over FcγRIIb), SPR (Biacore)
T4 construct: extracellular domain; Soluble receptor used as analyte in Biacore; also called FcgRI

[5] = target: T2, FcγRIIb extracellular domain with …; assay: SPR (Biacore), antibody captured, FcγR as analyte; binding relative to GpH7-A5/GpH7-B3/GpL16-k0 = 100
[6] = target: T4, FcγRIa extracellular domain with …; assay: as above

T4 sequence (P12314 16-292): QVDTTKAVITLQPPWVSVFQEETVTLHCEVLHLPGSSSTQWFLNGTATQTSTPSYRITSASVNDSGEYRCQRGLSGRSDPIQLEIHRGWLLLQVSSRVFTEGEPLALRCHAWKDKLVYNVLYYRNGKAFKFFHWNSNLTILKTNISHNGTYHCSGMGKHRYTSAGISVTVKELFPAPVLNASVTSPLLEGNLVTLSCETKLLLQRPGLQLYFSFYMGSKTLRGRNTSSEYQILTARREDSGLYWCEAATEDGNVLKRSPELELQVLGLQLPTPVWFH
T3 sequence (P08637 17-208): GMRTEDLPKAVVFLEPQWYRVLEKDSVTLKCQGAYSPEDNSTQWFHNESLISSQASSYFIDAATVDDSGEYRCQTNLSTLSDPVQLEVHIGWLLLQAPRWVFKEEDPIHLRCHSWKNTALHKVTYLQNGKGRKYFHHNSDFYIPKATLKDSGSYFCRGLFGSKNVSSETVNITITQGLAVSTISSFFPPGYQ

Binder	He/Con_2b [1]	He/Con_3a [2]	He_3a/2b (IIIa/IIb) [3]	He_1a/2b (Ia/IIb) [4]	He/Con_2b [5] [control = 100]	He/Con_1a [6] [control = 100]
GpH7-A5/GpH7-B3 variant K326_02A/GpL16-k0 (antibody, human IgG1, kappa, Heterodimerized IgG1, mutation in the GpH7-B3 chain only; also called He Ab) heavy 1: not shown heavy 2: not shown light: DIVMTQSPLSLPVTPGEPASISCQASESLVHSNRNTYLHWYLQKPGQSPQLLIYKVSNRFSGVPDRFSGSGSGTDFTLKISRVEAEDVGVYYCSQNTHVPPTFGQGTKVEIERTVAAPSVFIFPPSDEQLKSGTASVVCLLNNFYPREAKVQWKVDNALQSGNSQESVTEQDSKDSTYSLSSTLTLSKADYEKHKVYACEVTHQGLSSPVTKSFNRGEC				0.73	139	102
GpH7-A5/GpH7-B3 variant H268_10E/GpL16-k0 (antibody, human IgG1, kappa, Heterodimerized IgG1, mutation in the GpH7-B3 chain only; also called He Ab) heavy 1: not shown heavy 2: not shown light: DIVMTQSPLSLPVTPGEPASISCQASESLVHSNRNTYLHWYLQKPGQSPQLLIYKVSNRFSGVPDRFSGSGSGTDFTLKISRVEAEDVGVYYCSQNTHVPPTFGQGTKVEIERTVAAPSVFIFPPSDEQLKSGTASVVCLLNNFYPREAKVQWKVDNALQSGNSQESVTEQDSKDSTYSLSSTLTLSKADYEKHKVYACEVTHQGLSSPVTKSFNRGEC				0.48	230	111
GpH7-A5/GpH7-B3 variant H268_02A/GpL16-k0 (antibody, human IgG1, kappa, Heterodimerized IgG1, mutation in the GpH7-B3 chain only; also called He Ab) heavy 1: not shown heavy 2: not shown light: DIVMTQSPLSLPVTPGEPASISCQASESLVHSNRNTYLHWYLQKPGQSPQLLIYKVSNRFSGVPDRFSGSGSGTDFTLKISRVEAEDVGVYYCSQNTHVPPTFGQGTKVEIERTVAAPSVFIFPPSDEQLKSGTASVVCLLNNFYPREAKVQWKVDNALQSGNSQESVTEQDSKDSTYSLSSTLTLSKADYEKHKVYACEVTHQGLSSPVTKSFNRGEC				0.65	167	109
GpH7-A5/GpH7-B3 variant H268_13S/GpL16-k0 (antibody, human IgG1, kappa, Heterodimerized IgG1, mutation in the GpH7-B3 chain only; also called He Ab) heavy 1: not shown heavy 2: not shown light: DIVMTQSPLSLPVTPGEPASISCQASESLVHSNRNTYLHWYLQKPGQSPQLLIYKVSNRFSGVPDRFSGSGSGTDFTLKISRVEAEDVGVYYCSQNTHVPPTFGQGTKVEIERTVAAPSVFIFPPSDEQLKSGTASVVCLLNNFYPREAKVQWKVDNALQSGNSQESVTEQDSKDSTYSLSSTLTLSKADYEKHKVYACEVTHQGLSSPVTKSFNRGEC				0.68	160	109
GpH7-A5/GpH7-B3 variant H268_01G/GpL16-k0 (antibody, human IgG1, kappa, Heterodimerized IgG1, mutation in the GpH7-B3 chain only; also called He Ab) heavy 1: not shown heavy 2: not shown light: DIVMTQSPLSLPVTPGEPASISCQASESLVHSNRNTYLHWYLQKPGQSPQLLIYKVSNRFSGVPDRFSGSGSGTDFTLKISRVEAEDVGVYYCSQNTHVPPTFGQGTKVEIERTVAAPSVFIFPPSDEQLKSGTASVVCLLNNFYPREAKVQWKVDNALQSGNSQESVTEQDSKDSTYSLSSTLTLSKADYEKHKVYACEVTHQGLSSPVTKSFNRGEC				0.75	144	107
GpH7-A5/GpH7-B3 variant K326_03V/GpL16-k0 (antibody, human IgG1, kappa, Heterodimerized IgG1, mutation in the GpH7-B3 chain only; also called He Ab) heavy 1: not shown heavy 2: not shown light: DIVMTQSPLSLPVTPGEPASISCQASESLVHSNRNTYLHWYLQKPGQSPQLLIYKVSNRFSGVPDRFSGSGSGTDFTLKISRVEAEDVGVYYCSQNTHVPPTFGQGTKVEIERTVAAPSVFIFPPSDEQLKSGTASVVCLLNNFYPREAKVQWKVDNALQSGNSQESVTEQDSKDSTYSLSSTLTLSKADYEKHKVYACEVTHQGLSSPVTKSFNRGEC				0.58	175	102
GpH7-A5/GpH7-B3 variant H268_18N/GpL16-k0 (antibody, human IgG1, kappa, Heterodimerized IgG1, mutation in the GpH7-B3 chain only; also called He Ab) heavy 1: not shown heavy 2: not shown light: DIVMTQSPLSLPVTPGEPASISCQASESLVHSNRNTYLHWYLQKPGQSPQLLIYKVSNRFSGVPDRFSGSGSGTDFTLKISRVEAEDVGVYYCSQNTHVPPTFGQGTKVEIERTVAAPSVFIFPPSDEQLKSGTASVVCLLNNFYPREAKVQWKVDNALQSGNSQESVTEQDSKDSTYSLSSTLTLSKADYEKHKVYACEVTHQGLSSPVTKSFNRGEC				0.69	156	108
GpH7-A5/GpH7-B3 variant H268_09D/GpL16-k0 (antibody, human IgG1, kappa, Heterodimerized IgG1, mutation in the GpH7-B3 chain only; also called He Ab) heavy 1: not shown heavy 2: not shown light: DIVMTQSPLSLPVTPGEPASISCQASESLVHSNRNTYLHWYLQKPGQSPQLLIYKVSNRFSGVPDRFSGSGSGTDFTLKISRVEAEDVGVYYCSQNTHVPPTFGQGTKVEIERTVAAPSVFIFPPSDEQLKSGTASVVCLLNNFYPREAKVQWKVDNALQSGNSQESVTEQDSKDSTYSLSSTLTLSKADYEKHKVYACEVTHQGLSSPVTKSFNRGEC				0.46	239	110

More lines, now with the values ahead:

He/Con_2b [1]	He/Con_3a [2]	He_3a/2b (IIIa/IIb) [3]	He_1a/2b (Ia/IIb) [4]	He/Con_2b [5] [control = 100]	He/Con_1a [6] [control = 100]	Binder
6.3 % of control	38.1 % of control	6.06				GpH7-A5/GpH7-B3 variant L235_11K/GpL16-k0 (antibody, human IgG1, kappa, also called He Ab) heavy 1: not shown heavy 2: not shown light: DIVMTQSPLSLPVTPGEPASISCQASESLVHSNRNTYLHWYLQKPGQSPQLLIYKVSNRFSGVPDRFSGSGSGTDFTLKISRVEAEDVGVYYCSQNTHVPPTFGQGTKVEIERTVAAPSVFIFPPSDEQLKSGTASVVCLLNNFYPREAKVQWKVDNALQSGNSQESVTEQDSKDSTYSLSSTLTLSKADYEKHKVYACEVTHQGLSSPVTKSFNRGEC
54.9 % of control	67.3 % of control	1.23				GpH7-A5/GpH7-B3 variant L235_18N/GpL16-k0 (antibody, human IgG1, kappa, also called He Ab) heavy 1: not shown heavy 2: not shown light: DIVMTQSPLSLPVTPGEPASISCQASESLVHSNRNTYLHWYLQKPGQSPQLLIYKVSNRFSGVPDRFSGSGSGTDFTLKISRVEAEDVGVYYCSQNTHVPPTFGQGTKVEIERTVAAPSVFIFPPSDEQLKSGTASVVCLLNNFYPREAKVQWKVDNALQSGNSQESVTEQDSKDSTYSLSSTLTLSKADYEKHKVYACEVTHQGLSSPVTKSFNRGEC
42.6 % of control	70.5 % of control	1.65				GpH7-A5/GpH7-B3 variant L235_19Q/GpL16-k0 (antibody, human IgG1, kappa, also called He Ab) heavy 1: not shown heavy 2: not shown light: DIVMTQSPLSLPVTPGEPASISCQASESLVHSNRNTYLHWYLQKPGQSPQLLIYKVSNRFSGVPDRFSGSGSGTDFTLKISRVEAEDVGVYYCSQNTHVPPTFGQGTKVEIERTVAAPSVFIFPPSDEQLKSGTASVVCLLNNFYPREAKVQWKVDNALQSGNSQESVTEQDSKDSTYSLSSTLTLSKADYEKHKVYACEVTHQGLSSPVTKSFNRGEC
			0.62	165	102	GpH7-A5/GpH7-B3 variant K326_06M/GpL16-k0 (antibody, human IgG1, kappa, Heterodimerized IgG1, mutation in the GpH7-B3 chain only; also called He Ab) heavy 1: not shown heavy 2: not shown light: DIVMTQSPLSLPVTPGEPASISCQASESLVHSNRNTYLHWYLQKPGQSPQLLIYKVSNRFSGVPDRFSGSGSGTDFTLKISRVEAEDVGVYYCSQNTHVPPTFGQGTKVEIERTVAAPSVFIFPPSDEQLKSGTASVVCLLNNFYPREAKVQWKVDNALQSGNSQESVTEQDSKDSTYSLSSTLTLSKADYEKHKVYACEVTHQGLSSPVTKSFNRGEC
			0.51	199	101	GpH7-A5/GpH7-B3 variant K326_07I/GpL16-k0 (antibody, human IgG1, kappa, Heterodimerized IgG1, mutation in the GpH7-B3 chain only; also called He Ab) heavy 1: not shown heavy 2: not shown light: DIVMTQSPLSLPVTPGEPASISCQASESLVHSNRNTYLHWYLQKPGQSPQLLIYKVSNRFSGVPDRFSGSGSGTDFTLKISRVEAEDVGVYYCSQNTHVPPTFGQGTKVEIERTVAAPSVFIFPPSDEQLKSGTASVVCLLNNFYPREAKVQWKVDNALQSGNSQESVTEQDSKDSTYSLSSTLTLSKADYEKHKVYACEVTHQGLSSPVTKSFNRGEC
48.2 % of control	69.6 % of control	1.44				GpH7-A5/GpH7-B3 variant L235_13S/GpL16-k0 (antibody, human IgG1, kappa, also called He Ab) heavy 1: not shown heavy 2: not shown light: DIVMTQSPLSLPVTPGEPASISCQASESLVHSNRNTYLHWYLQKPGQSPQLLIYKVSNRFSGVPDRFSGSGSGTDFTLKISRVEAEDVGVYYCSQNTHVPPTFGQGTKVEIERTVAAPSVFIFPPSDEQLKSGTASVVCLLNNFYPREAKVQWKVDNALQSGNSQESVTEQDSKDSTYSLSSTLTLSKADYEKHKVYACEVTHQGLSSPVTKSFNRGEC
46.8 % of control	75.8 % of control	1.62				GpH7-A5/GpH7-B3 variant L235_14T/GpL16-k0 (antibody, human IgG1, kappa, also called He Ab) heavy 1: not shown heavy 2: not shown light: DIVMTQSPLSLPVTPGEPASISCQASESLVHSNRNTYLHWYLQKPGQSPQLLIYKVSNRFSGVPDRFSGSGSGTDFTLKISRVEAEDVGVYYCSQNTHVPPTFGQGTKVEIERTVAAPSVFIFPPSDEQLKSGTASVVCLLNNFYPREAKVQWKVDNALQSGNSQESVTEQDSKDSTYSLSSTLTLSKADYEKHKVYACEVTHQGLSSPVTKSFNRGEC
			0.66	155	102	GpH7-A5/GpH7-B3 variant K326_04F/GpL16-k0 (antibody, human IgG1, kappa, Heterodimerized IgG1, mutation in the GpH7-B3 chain only; also called He Ab) heavy 1: not shown heavy 2: not shown light: DIVMTQSPLSLPVTPGEPASISCQASESLVHSNRNTYLHWYLQKPGQSPQLLIYKVSNRFSGVPDRFSGSGSGTDFTLKISRVEAEDVGVYYCSQNTHVPPTFGQGTKVEIERTVAAPSVFIFPPSDEQLKSGTASVVCLLNNFYPREAKVQWKVDNALQSGNSQESVTEQDSKDSTYSLSSTLTLSKADYEKHKVYACEVTHQGLSSPVTKSFNRGEC

From patent US20150344570A1 (published 2015)
